Test results from the supplement of paper PMC10567573.

B1: FCHO1 (parent)
chain: FTSSPSPFSSSSPENVEDSGLDSP
B2: ALKBH7 (parent)
chain: SVICRSLPEGMGPGESGQPPPAC

Variants of: B1
Experiment: protein stability index of a GFP-peptide fusion (GPS, HEK-293T) (PSI 1-6); higher = more stable
Details: c terminus: a fixed tail appended
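Note: lentivirally expressed fusions sorted by FACS into six bins by GFP to DsRed ratio, PSI derived from sequencing read proportions per bin multiplied by bin number.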

Protein stability index, by site and new letter:
D22: S 1.78, Q 1.83, M 1.48, A 2, L 2.14, K 1.74, P 2.23, I 2.11, Y 2.42, E 2.6, V 2.43, F 1.31, H 2.29, N 2.96, G 1.86, W 2.62, R 2.04, T 2.18, C 2.47
P24: S 1.94, K 1.96, D 1.85, Y 2.35, E 1.84, V 2.02, F 1.89, T 2.08, L 1.98, I 1.96, M 2.24, C 2.99, Q 2.32, H 2.42, R 2.47, A 1.38, W 1.54, G 1.77, N 1.81
S23: L 2.6, A 2.06, Q 2.66, C 1.68, E 1.88, R 1.79, P 2.27, I 1.91, H 2.44, K 2.17, V 1.56, G 1.81, Y 1.37, W 2.12, N 1.78, M 1.68, D 2.18, T 1.8, F 2.18
L21: Y 2.19

Variants of: B2
Experiment: as above
Details: c terminus: native

Protein stability index of substitutions, site by site:
G17: C 1.73, T 1.61, S 1.71, A 2.39, D 2.36, K 2.94, N 1.95, E 2.45, H 1.4, L 2.14, I 2.46, Y 1.09, Q 2.11, R 1.38
M11: R 2.29, P 1.84, F 1.49, L 1.99, D 4.2, C 1.73, S 2.23, W 1, A 2.37, E 3.08, N 2.81, Y 2.52, H 1.98
P19: A 1.71, C 3.13, D 4.84
L7: C 2.05, D 2.98, Q 2.67, V 1.99, H 1.63, R 1.85, S 2.14, Y 1.67, M 1.67, I 2.36, A 2.32, E 2.16, F 2.35, T 3.06
G14: E 1.53, R 1.67, I 1.24, K 1.58, S 1.42, N 2.42, A 2.37, L 2, F 1.61, W 1.26, M 1.63, H 2.07, V 1.15, D 2.25, C 1.52, T 1.77, Q 2.4
I3: E 2.88, F 1.66, N 2.23, Y 1.62, A 2.19, S 2.51, V 1.84, K 1.65, P 2.4, T 1.92, Q 1.49, L 1.6, M 1.43, H 3.61, R 2.64
G12: Q 2, S 1.87, A 2.17, D 2.52, E 2.85, P 2.37, M 2.68, L 1.85, R 1.82, N 2.09, K 2.22, Y 2.04, I 1.87, F 1.54, H 1.69, W 1.09
Q18: Y 3.38, S 2.36, M 1.85, H 2.38, R 2, E 2.15, F 3.03, N 2.05, A 2.15, I 2.56, K 2.16, D 2.05, L 2.07, C 1.66
S1: M 1.47, T 2.2, R 1.39, G 2.23, I 3.78, N 1.63, P 2.23, D 1.87, E 3.06, H 1.98
E9: C 1.02, T 1.7, S 1.5, Y 1.85, K 1.7, W 1.68, M 1.55, H 1.77, Q 1.83, I 1.99, R 1.91, F 1.86, D 2.97, N 1.93, L 1.23, G 2.54
S16: R 2.12, I 1.59, Y 1.95, D 2.2, Q 1.8, P 2.07, V 3.02, K 2.28, E 1.81, M 2.59, A 1.97, T 1.92, F 2.37, H 2.07, N 2.06, G 2.29
R5: Y 1.46, I 1.44, Q 2.04, M 1.8, T 2.1, S 2.65, D 2.56, E 2.46, H 2.73, G 2.09, K 2.32, C 2.28, N 1.7, P 2.59, F 1.51, A 1.88, L 1.66
G10: C 1.95, N 1.5, T 1.03, E 1.91, A 2.59, Y 1.91, L 1.51, S 3.04, F 1.89, K 1.91, P 1.88, D 2.29, R 1.76, M 3.27, I 1.95
C4: N 2.24, V 1.63, K 1.37, Q 2.83, F 1.61, P 2.4, R 1.72, W 2.62, H 2.29, D 1.58, G 1.79, L 2.03, T 1.62, I 2.88, M 1.75, A 3.06, S 1.82, Y 1.47
P8: W 2.01, M 2.93, T 1.67, E 2.46, N 2.48, Q 2.53, A 2.08, S 2.32, H 2.94, V 1.42, I 1.65, G 2.19
S6: R 1.95, M 1.68, E 3.01, Q 2.08, P 2.05, L 1.6, C 2.03, H 2.71, K 2.28, D 2.54, A 2.01, T 2.07, Y 2.25, I 1.43
V2: M 2.57, Q 2.26, A 2.4, K 2.14, P 2.31, G 2.08, I 2.77, E 2.4, D 2.05, S 2.67, C 1.73, F 2.78, H 1.78, T 2.9, N 2.41
E15: I 2.1, M 2.4, P 1.73, F 2.49, T 2.01, K 1.62, S 2.68, Y 1.66, V 2.44, C 1.01, D 2.44, G 1.82, L 1.02, R 1.6, Q 1.16, N 1.8, A 1.09, H 1.71
P13: V 1.4, S 2.35, F 1.55, N 2.4, R 3.33, M 1.55, E 1.92, D 2.4, I 1.75, T 1.81, G 1.58, K 2.16, W 1.57, Y 1.74, H 2.18, L 1.39, Q 2.38, C 1.92, A 1.73
